T1: PKD1 on the ProtoArray Human Protein Microarray (human, UniProt Q15139 1-912)
T1 construct: protein kinase D1 (PKD1) as spotted on the human protein microarray; construct not described; Proteins on this commercial array may carry a carrier tag; also called protein kinase D1; source: spotted on ProtoArray Human Protein Microarray (Invitrogen)
T1 sequence (looked up): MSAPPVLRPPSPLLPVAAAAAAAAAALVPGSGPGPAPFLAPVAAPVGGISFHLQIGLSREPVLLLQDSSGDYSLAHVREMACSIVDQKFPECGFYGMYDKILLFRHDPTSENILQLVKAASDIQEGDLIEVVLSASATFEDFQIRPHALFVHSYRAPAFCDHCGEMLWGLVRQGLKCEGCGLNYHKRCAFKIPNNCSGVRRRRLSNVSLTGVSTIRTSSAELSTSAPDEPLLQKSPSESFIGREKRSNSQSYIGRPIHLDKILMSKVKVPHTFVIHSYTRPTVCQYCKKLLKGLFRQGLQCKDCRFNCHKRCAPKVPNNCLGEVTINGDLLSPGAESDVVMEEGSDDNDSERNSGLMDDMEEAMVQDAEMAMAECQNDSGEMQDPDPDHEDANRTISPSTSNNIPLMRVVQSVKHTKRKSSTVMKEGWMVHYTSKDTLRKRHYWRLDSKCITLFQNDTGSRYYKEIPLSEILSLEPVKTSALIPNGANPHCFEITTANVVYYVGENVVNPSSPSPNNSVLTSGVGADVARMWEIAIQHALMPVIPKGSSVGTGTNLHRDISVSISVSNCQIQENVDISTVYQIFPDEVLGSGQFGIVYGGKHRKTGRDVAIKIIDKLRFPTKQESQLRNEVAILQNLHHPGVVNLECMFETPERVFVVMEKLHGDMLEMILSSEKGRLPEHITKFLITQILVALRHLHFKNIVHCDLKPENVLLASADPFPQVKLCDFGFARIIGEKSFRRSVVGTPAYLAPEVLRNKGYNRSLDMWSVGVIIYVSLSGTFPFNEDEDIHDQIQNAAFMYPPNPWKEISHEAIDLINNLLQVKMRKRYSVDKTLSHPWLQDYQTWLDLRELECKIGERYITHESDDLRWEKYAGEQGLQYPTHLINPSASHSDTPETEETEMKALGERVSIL

B1: PKD1 25mer peptide spanning residues 606 to 630 (peptide array spot) (peptide)
peptide: GRDVAIKIIDKLRFPTKQESQLRNE
notes: also called G606-E630; source: SPOT-synthesised peptide on array
B2: His-tagged HSP20 protein (natural protein, UniProt O14558 1-160, looked up)
chain: MEIPVPVQPSWLRRASAPLPGLSAPGRLFDQRFGEGLLEAELAALCPTTLAPYYLRAPSVALPVAQVPTDPGHFSVLLDVKHFSPEEIAVKVVGEHVEVHARHEERPDEHGFVAREFHRRYRLPPGVDPAAVTSALSPEGVLSIQAAPASAQAPPPAAAK
notes: HSP20 (heat shock protein 20), open reading frame from Ultimate ORF clone IOH57317 in pENTR221, moved into pDEST-17 by Gateway cloning; also called His-HSP20; His-Hsp20; source: E. coli, purified (Ni-NTA Superflow resin); not shown: His, N-terminal, kept

Legend:
His-tagged HSP20 protein = biological target: B2; assay: peptide or protein array; sequence of PKD1 spotted as 25mer peptides each shifted by five amino acids, and alanine scanning array of the 606-630 peptide, overlaid with Hsp20; methods in ref. 31; conditions: both partners purified
[1] = biological target: T1, PKD1 on the ProtoArray Human Protein …; assay: peptide or protein array; ProtoArray Human Protein Microarray probed with 10 uM (200 ug/ml) His-HSP20 in 1xPBS, 5 mM MgCl2, 0.5 mM DTT, 0.05% Triton X-100, 5% glycerol, 1% BSA for 1.5 h at 4 C; detected with anti-His and Alexa Fluor 647 secondary antibody; control array in parallel; conditions: both partners purified

binding result (His-tagged HSP20 protein) | binding result [1] | Binder
binds | – | B1
– | binds | B2
